Measurements: patent publication US7122359B2, “Active-site engineering of nucleotidylyltransferases and general enzymatic methods for the synthesis of natural and “unnatural” UDP- and TDP-nucleotide sugars” (priority 2000, dated 2006)

Test: Specific activity of purified Ep (1 U = protein needed to produce 1 μmol TDP-D-glucose min^−1)
Format: biochemical, Salmonella enterica LT2
Settings: purified to near homogeneity
Text: Ep is encoded by rmlA, which was previously known as rfbA (Reeves et al. Trends Microbiol. 1996, 4, 495–502). The rmlA-encoded Ep was overexpressed in E. coli to provide the desired Ep as >5% of the total soluble protein. The corresponding Ep was purified to near homogeniety with a specific activity of 110 U mg^−1, a 2-fold improvement over the previously reported values. (See Lindquist, L.; Kaiser, R.; Reeves, P. R.; Lindberg, A. A. Eur. J. Biochem., 1993, 211, 763–770.) An (NH4)2SO4 precipitate of E. coli-prfbA-C crude extracts was dialyzed against buffer B (20 mM Tris.HCl, 1 mM EDTA, pH 7.5) The dialysate was resolved by anion exchange (DE52, 3×15 cm, 50 mL buffer B wash followed by a linear gradient of 0–500 mM NaCl, 1.0 mL min^−1) and the Ep fractions combined, concentrated and further resolved by FPLC gel filtration (S-200, 2×70 cm, 50 mM Tris.HCl, 200 mM NaCl, pH 7.5). The purified Ep was stored in aliquots (−80° C.) until used.
To evaluate the synthetic utility of purified thymidylyltransferase, Ep, α-D-hexopyranosyl phosphate, Mg^+2 and NTP were incubated at about 37° C. for about 30 min and the extent of product formation determined by HPLC. The results of these assays are illustrated in FIG. 2. Confirmation of product formation was based upon HPLC co-elution with commercially available standards and/or HPLC isolation and high resolution mass spectroscopy of the product. […]

Question: For “Ep: Salmonella enterica LT2 rmlA-encoded α-D-glucopyranosyl phosphate thymidylyltransferase, overexpressed in E. coli and purified”, which specific activity is on record?
Answer: The specific activity was 110 U mg^−1.
